Measurements reported in paper PMC12407084.
Where a chain is given by its changes, count along the chain named. Names and notes keep the numbering of the source.

B1: Human Ndc80c Bonsai Ndc80-GFP (WT) Nuf2:K33D; Nuf2:K41D; Nuf2:K115D (protein)
chain 1: MKRSSVSSGGAGRLSMQELRSQDVNKQGLYTPQTKEKPTFGKLSINKPTSERKVSLFGKRTSGHGSRNSQLGIFSSSEKIKDPRPLNDKAFIQQCIRQLCEFLTENGYAHNVSMKSLQAPSVKDFLKIFTFLYGFLCPSYELPDTKFEEEVPRIFKDLGYPFALSKSSMYTVGAPHTWPHIVAALVWLIDCIKIHTAMKESSPLFDDGQPWGEETEDGIMHNKLFLDYTIKCYESFMSGADSFDEMNAELQSKLKDLFNVDAFKLESLEAKNRALNEQIARLEQERSTANKANAERLKRLQKSADLYKDRLGLEIRKIYGEKLQFIFTNIDPKNPESPFMFSLHLNEARDYEVSDSAPHLEGLAEFQENVRKTNNFSAFLANVRKAFTATVYN
chain 2: METLSFPRYNVAEIVIHIRNKILTGADGKNLTDNDLYPNPDPEVLHMIYMRALQIVYGIRLEHFYMMPVNSEVMYPHLMEGFLPFSNLVTHLDSFLPICRVNDFETADILCPKADRTSRFLSGIINFIHFREACRETYMEFLWQYKSSADKMQQLNAAHQEALMKLERLEKEVDEDTTVTIPSAVYVAQLYHQVSKIEWDYECEPGMVKGIHHGPSVAQPIHLDSTQLSRKFISDYLWSLVDTEW
B2: Human Ndc80c Bonsai Ndc80-GFP (WT) Hec1:K166D (protein)
chain 1: B1 chain 1 with K166D
chain 2: B1 chain 2 with D33K, D41K, D115K

Target: Taxol-stabilized microtubules polymerized from bovine brain tubulin, Q6B856
Assay: fluorescence microscopy of microtubule decoration by GFP-tagged protein
Conditions: chain shown with the change; 100 nM GFP-tagged Ndc80c Bonsai protein; rhodamine-labeled taxol-stabilized microtubules; parent: est. 12000; read off a plot

Sequence of Taxol-stabilized microtubules polymerized from bovine brain tubulin, Q6B856 (chain, as listed by the source, chain 1 of 2): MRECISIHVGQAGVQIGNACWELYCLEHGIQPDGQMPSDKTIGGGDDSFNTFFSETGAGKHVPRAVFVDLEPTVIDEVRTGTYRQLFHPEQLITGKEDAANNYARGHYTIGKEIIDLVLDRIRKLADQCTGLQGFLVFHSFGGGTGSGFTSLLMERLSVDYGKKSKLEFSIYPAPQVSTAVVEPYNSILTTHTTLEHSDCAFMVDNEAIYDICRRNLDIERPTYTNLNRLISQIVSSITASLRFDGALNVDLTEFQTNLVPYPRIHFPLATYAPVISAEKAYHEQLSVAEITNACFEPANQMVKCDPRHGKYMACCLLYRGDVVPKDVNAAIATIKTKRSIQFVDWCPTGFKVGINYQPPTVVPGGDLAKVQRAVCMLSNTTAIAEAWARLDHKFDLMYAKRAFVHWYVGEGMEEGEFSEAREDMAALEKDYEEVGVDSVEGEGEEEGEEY
Sequence of Taxol-stabilized microtubules polymerized from bovine brain tubulin, Q6B856 (Q6B856 whole entry, chain 2 of 2): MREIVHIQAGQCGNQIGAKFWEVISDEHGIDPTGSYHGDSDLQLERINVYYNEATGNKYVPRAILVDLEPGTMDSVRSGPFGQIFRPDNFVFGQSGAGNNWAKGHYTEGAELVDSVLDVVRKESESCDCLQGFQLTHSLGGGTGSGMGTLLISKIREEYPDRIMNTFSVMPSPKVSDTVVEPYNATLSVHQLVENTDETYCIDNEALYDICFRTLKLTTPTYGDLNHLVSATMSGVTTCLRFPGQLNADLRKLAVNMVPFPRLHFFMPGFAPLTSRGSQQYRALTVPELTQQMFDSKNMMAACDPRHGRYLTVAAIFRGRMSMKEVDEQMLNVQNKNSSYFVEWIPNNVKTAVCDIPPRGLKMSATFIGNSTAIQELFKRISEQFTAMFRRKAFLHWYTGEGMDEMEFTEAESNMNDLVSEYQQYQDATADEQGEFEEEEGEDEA

response [a.u.]	Binder
160	B1
400	B2
